This test deals with T1, human C1s (active form) (human) (UniProt P09871).
T1 sequence 1: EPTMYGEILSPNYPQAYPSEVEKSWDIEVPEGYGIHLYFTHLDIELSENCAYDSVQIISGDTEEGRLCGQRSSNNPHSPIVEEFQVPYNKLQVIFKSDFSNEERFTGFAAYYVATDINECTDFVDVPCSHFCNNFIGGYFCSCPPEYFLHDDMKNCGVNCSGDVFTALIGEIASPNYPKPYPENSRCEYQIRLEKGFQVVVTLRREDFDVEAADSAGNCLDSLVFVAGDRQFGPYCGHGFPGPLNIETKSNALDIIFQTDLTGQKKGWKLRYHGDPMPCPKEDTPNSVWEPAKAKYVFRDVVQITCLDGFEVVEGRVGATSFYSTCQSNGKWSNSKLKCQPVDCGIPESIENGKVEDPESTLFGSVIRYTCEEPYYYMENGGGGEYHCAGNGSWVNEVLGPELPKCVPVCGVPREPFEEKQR
T1 sequence 2: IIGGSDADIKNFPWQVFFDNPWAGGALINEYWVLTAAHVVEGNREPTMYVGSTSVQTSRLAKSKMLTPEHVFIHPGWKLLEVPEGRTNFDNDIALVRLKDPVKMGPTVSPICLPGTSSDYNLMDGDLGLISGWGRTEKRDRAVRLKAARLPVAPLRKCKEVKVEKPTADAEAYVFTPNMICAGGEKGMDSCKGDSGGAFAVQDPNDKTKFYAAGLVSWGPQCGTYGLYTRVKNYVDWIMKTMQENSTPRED
Put plainly: cell-based or functional assay.

B1: TNT020 (antibody, from another filing, V domains shown)
VH: QVQLVQSGAEVKKPGASVKLSCTASGFNIKDDYIHWVKQAPGQGLEWIGRIDPADGHTKYAPKFQVKVTITADTSTSTAYLELSSLRSEDTAVYYCARYGYGREVFDYWGQGTTVTVSS
VL: DIVLTQSPDSLAVSLGERATISCKASQSVDYDGDSYMNWYQQKPGQPPKILIYDASNLESGIPARFSGSGSGTDFTLTISSLEPEDFAIYYCQQSNEDPWTFGGGTKVEIKR
Regarding B1, the IC50 of inhibition of C3b deposition on antibody-sensitized human RBCs (flow cytometry, 5% human serum) stood at 6.5 nM.

B2: TNT009 (antibody, from another filing, V domains shown)
VH: EVQLVESGGGLVKPGGSLRLSCAASGFTFSNYAMSWVRQAPGKGLEWVATISSGGSHTYYLDSVKGRFTISRDNSKNTLYLQMNSLRAEDTALYYCARLFTGYAMDYWGQGTLVTVSS
VL: QIVLTQSPATLSLSPGERATMSCTASSSVSSSYLHWYQQKPGKAPKLWIYSTSNLASGVPSRFSGSGSGTDYTLTISSLQPEDFATYYCHQYYRLPPITFGQGTKLEIKR
On to B2, for which the IC50 of inhibition of C3b deposition on antibody-sensitized human RBCs (flow cytometry, 5% human serum) was determined as 5 nM.
